From patent US10738094B2, “Peptides and combination of peptides for use in immunotherapy against ovarian cancer and other cancers” (immatics biotechnologies GmbH, priority 2015, dated 2020)

Target: HLA-A*02:01 (Homo sapiens, UniProt P04439, D140Y/D185E/D98H/E176V/E277Q/G131W/G231S/I119V/I121R/I166T/I218V/L300P/L318F/N151K/N90K/P208A/P217A/Q86G/Q94H/R138H/R169H/T345S)
Assay: MHC binding assay (UV-ligand exchange, beta2m ELISA)
Conditions: binding to HLA-A*02:01 ranged by peptide exchange yield (UV-ligand exchange, β2m ELISA)
Procedure, shortened: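 UV-cleavable ligand in peptide-MHC complexes was exchanged for test peptide. Exchange yield came from an ELISA on streptavidin-captured complexes diluted 100 fold, detecting β2m with HRP anti-β2m (2 ug/ml, 1 h, 37° C.), TMB, A450.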

Substance	Peptide exchange
337 (HLLSELEAAPYL; listed as Homo sapiens) [compound 337]	“++++” (≥75% = ++++)
57 (TLAELQPPVQL; listed as Homo sapiens) [compound 57]	“+++” (≥50 = +++)
123 (NLWDLTDASVV; listed as Homo sapiens) [compound 123]	“+++” (≥50 = +++)
29 (KMLGIPISNILMV; listed as Homo sapiens) [compound 29]	“+++” (≥50 = +++)
256 (FLPPEHTIVYI; listed as Homo sapiens) [compound 256]	“+++” (≥50 = +++)
167 (KVLEVTEEFGV; listed as Homo sapiens) [compound 167]	“+++” (≥50 = +++)
50 (SLSELEALM; listed as Homo sapiens) [compound 50]	“+++” (≥50 = +++)
5 (HLTEVYPEL; listed as Homo sapiens) [compound 5]	“+++” (≥50 = +++)
325 (FIMPATVADATAV; listed as Homo sapiens) [compound 325]	“+++” (≥50 = +++)
235 (YLNDLHEVLL; listed as Homo sapiens) [compound 235]	“++++” (≥75% = ++++)
16 (VLFQGQASL; listed as Homo sapiens) [compound 16]	“+++” (≥50 = +++)
240 (ILLEQAFYL; listed as Homo sapiens) [compound 240]	“+++” (≥50 = +++)
390 (ALFMKQIYL; listed as Homo sapiens) [compound 390]	“+++” (≥50 = +++)
18 (YLVAKLVEV; listed as Homo sapiens) [compound 18]	“++” (≥20% = ++)
386 (ILFRYPLTI; listed as Homo sapiens) [compound 386]	“+++” (≥50 = +++)
266 (KITDTLIHL; listed as Homo sapiens) [compound 266]	“+++” (≥50 = +++)
299 (YLLETSGNL; listed as Homo sapiens) [compound 299]	“+++” (≥50 = +++)
283 (ALYIGDGYVIHLA; listed as Homo sapiens) [compound 283]	“+++” (≥50 = +++)
405 (ALYDVFLEV; listed as Homo sapiens) [compound 405]	“++” (≥20% = ++)
458 (SLIDKLYNI; listed as Homo sapiens) [compound 458]	“++” (≥20% = ++)
252 (LLIGTDVSL; listed as Homo sapiens) [compound 252]	“+++” (≥50 = +++)

Other lines, results leading:

Peptide exchange	Substance
“+++” (≥50 = +++)	608 (SLLSVSHAL; listed as Homo sapiens) [compound 608]
“++” (≥20% = ++)	538 (LLLAHIIAL; listed as Homo sapiens) [compound 538]
“+++” (≥50 = +++)	539 (ALFDAQAQV; listed as Homo sapiens) [compound 539]
“+++” (≥50 = +++)	584 (ALAEVAAMENV; listed as Homo sapiens) [compound 584]
“++” (≥20% = ++)	459 (ALITEVVRL; listed as Homo sapiens) [compound 459]
“+++” (≥50 = +++)	507 (KLIDDQDISISL; listed as Homo sapiens) [compound 507]
“++” (≥20% = ++)	504 (GLSDGNPSL; listed as Homo sapiens) [compound 504]
“+++” (≥50 = +++)	477 (ALLPASGQIAL; listed as Homo sapiens) [compound 477]
“+++” (≥50 = +++)	613 (RLLPPGAVVAV; listed as Homo sapiens) [compound 613]
“+++” (≥50 = +++)	549 (AMLENASDIKL; listed as Homo sapiens) [compound 549]
“+++” (≥50 = +++)	577 (VMFEDGVLMRL; listed as Homo sapiens) [compound 577]
